These are literature values, as cited in PMC12703448.

This data set deals with PDE6D (Homo sapiens) (UniProt O43924).
PDE6D (Homo sapiens), sequence (O43924 whole entry): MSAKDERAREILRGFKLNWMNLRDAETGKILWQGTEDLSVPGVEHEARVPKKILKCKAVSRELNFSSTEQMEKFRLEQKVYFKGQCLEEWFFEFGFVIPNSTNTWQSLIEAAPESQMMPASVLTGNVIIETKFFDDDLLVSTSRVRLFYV

INPP5E, sequence (Q9NRR6 1-641): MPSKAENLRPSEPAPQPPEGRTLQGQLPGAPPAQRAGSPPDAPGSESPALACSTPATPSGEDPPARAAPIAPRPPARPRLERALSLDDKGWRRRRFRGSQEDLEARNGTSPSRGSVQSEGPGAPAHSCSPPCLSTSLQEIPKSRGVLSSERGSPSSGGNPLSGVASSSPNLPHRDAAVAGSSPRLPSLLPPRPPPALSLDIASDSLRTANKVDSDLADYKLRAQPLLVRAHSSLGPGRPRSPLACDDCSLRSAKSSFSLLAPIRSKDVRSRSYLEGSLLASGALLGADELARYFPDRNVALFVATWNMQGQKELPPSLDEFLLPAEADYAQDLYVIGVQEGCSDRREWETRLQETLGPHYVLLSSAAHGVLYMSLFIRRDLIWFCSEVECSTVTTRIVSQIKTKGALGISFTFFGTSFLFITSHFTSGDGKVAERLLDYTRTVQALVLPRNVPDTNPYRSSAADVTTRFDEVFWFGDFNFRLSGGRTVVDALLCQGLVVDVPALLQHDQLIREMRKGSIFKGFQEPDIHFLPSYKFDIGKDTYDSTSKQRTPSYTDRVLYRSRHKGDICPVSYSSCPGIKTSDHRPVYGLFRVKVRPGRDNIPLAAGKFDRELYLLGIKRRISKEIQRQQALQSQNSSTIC

On to INPP5E (from UniProt Q9NRR6), for which the Kd was 4 nM.
